Experimental data: patent US5760204

Key:
[1] = target: human interleukin 5 receptor HSIL5R (human); assay: Scatchard analysis, 125I-labeled human IL-5 on COS7 cells transfected with pCAGGS.HSIL5R
[2] = target: human interleukin 5 receptor 2 HSIL5R2 (human); assay: Scatchard analysis, 125I-labeled human IL-5 on COS7 cells transfected with pCAGGS.HSIL5R2
[3] = target: murine interleukin 5 receptor encoded by pIL-5R.8 (membrane bound, low affinity IL-5R) (mouse); assay: Scatchard analysis, 35S-labeled IL-5 on COS7 cells transfected with pCAGGS.5R.8
[4] = target: high affinity IL-5R on Y16 cells (mouse) (UniProt P21183); assay: Scatchard analysis, 35S-labeled IL-5 on Y16 cells, high affinity sites
[5] = target: murine interleukin 5 receptor encoded by pIL-5R.8 (membrane bound, low affinity IL-5R) (mouse); assay: Scatchard analysis, 35S-labeled IL-5 on COS7 cells transfected with pIL-5R.8 (CDM8 vector)
[6] = target: human interleukin 5 receptor 2 HSIL5R2 (human); assay: Scatchard analysis, 35S-labeled mouse IL-5 on COS7 cells transfected with pCAGGS.HSIL5R2
[7] = target: human interleukin 5 receptor HSIL5R (human); assay: Scatchard analysis, 35S-labeled mouse IL-5 on COS7 cells transfected with pCAGGS.HSIL5R
[8] = target: low affinity IL-5R on Y16 cells (mouse) (UniProt P21183); assay: Scatchard analysis, 35S-labeled IL-5 on Y16 cells, low affinity sites

| Kd [1] [nM] | Kd [2] [nM] | Kd [3] [nM] | Kd [4] [nM] | Kd [5] [nM] | Kd [6] [nM] | Kd [7] [nM] | Kd [8] [nM] | Substance |
| --- | --- | --- | --- | --- | --- | --- | --- | --- |
| 0.59 | 0.41 | – | – | – | – | – | – | human interleukin 5 (from UniProt P05113) (ligand) |
| – | – | 9.6 | 0.02 | 2 | 0.355 | 0.25 | 5.1 | murine interleukin 5 (from UniProt P04401) (ligand) |
